For assay [1], the target named is site-specific biotinylated monomeric human CD32a^H (FcγRIIa, histidine-131 variant), recombinant (human) (UniProt P12318). As to the kind of experiment: SPR (Biacore 3000), steady state, monomeric IgG, pH 7.4.
For assay [2], the target named is site-specific biotinylated monomeric human CD32a^R (FcγRIIa, arginine-131 variant), recombinant (human) (UniProt P12318). The assay is described as above.
The target of assay [3] is His-tagged soluble mouse FcRn (mFcRn), recombinant (mouse) (UniProt Q61559). Description: method not stated; neutral pH.
Assay [4] deals with site-specific biotinylated monomeric human CD32a^H (FcγRIIa, histidine-131 variant), recombinant (human) (UniProt P12318). As to the kind of experiment: SPR steady state (refers to Table 6).
Assay [5] addresses T1, His-tagged soluble human FcRn (hFcRn), recombinant (human, UniProt P55899 24-290; P61769 21-119, limits assumed).
T1 construct: Made in an insect cell system 'as described previously'; also called recombinant hFcRn; hFcRn reporter complex (with ALP-conjugated hFcRn-specific nanobody)
Description: bridging ELISA at pH 5.5: hFcRn/ALP-nanobody reporter complex at one concentration on captured CD32a^H without IgG.

Assay [6] concerns the target T2, His-tagged soluble mouse FcRn (mFcRn), recombinant (mouse, UniProt Q61559 22-290; P01887 21-119, limits assumed).
T2 construct: Made in an insect cell system 'as described previously'; also called recombinant mFcRn
T2 sequence (looked up): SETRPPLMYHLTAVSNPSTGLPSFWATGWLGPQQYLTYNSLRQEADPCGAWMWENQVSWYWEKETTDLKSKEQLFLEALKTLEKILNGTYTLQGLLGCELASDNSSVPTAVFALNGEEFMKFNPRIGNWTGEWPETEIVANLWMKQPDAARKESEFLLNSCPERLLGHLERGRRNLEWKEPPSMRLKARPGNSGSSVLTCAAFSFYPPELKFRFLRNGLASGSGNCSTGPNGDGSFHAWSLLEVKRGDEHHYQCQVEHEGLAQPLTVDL
T2 sequence (b2m, looked up): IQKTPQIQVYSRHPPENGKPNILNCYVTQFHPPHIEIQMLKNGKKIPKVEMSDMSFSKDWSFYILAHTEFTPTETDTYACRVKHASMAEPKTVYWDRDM
As to the kind of experiment: SPR at pH 5.5: mFcRn injected alone over CD32a^H captured on neutravidin (variant as titled on the sheet); the concentration is not printed on the sheet.
Description: (§1) Recombinant C-terminus-biotinylated CD32a variants were captured on neutravidin-coated plates. Analyte(s) were then injected as indicated and specified in the material and methods. […] Recombinant C-terminus-biotinylated CD32a variants were captured on neutravidin amine-coupled CM5 sensor chips. Analyte(s) were then injected as indicated and specified in the material and methods.
(§2) The cDNAs encoding for CD32a^R and CD32a^H were subcloned into a pcDNA3.1 vector and sequences verified by DNA sequencing. […] To obtain clones with similar expression of CD32a^R or CD32a^H, transfected MDCK-II, HEK293T^H2-Kb, and RAW264.7 were processed by fluorescence-activated cell sorting (FACS; BD FACSAria II™). SPR and ELISA CD32a-IgG-FcRn binding SPR analysis was performed using a Biacore 3000™ instrument (GE Healthcare™). CM5™ sensor chips (GE Healthcare™) were coupled with neutrAvidin (Pierce™) (~1000 RU) using amine coupling chemistry, by injecting 5 g/ml in 10 mM sodium acetate, pH 4.5 (GE Healthcare™) at 25° C.).

The target of assay [7] is T1, His-tagged soluble human FcRn (hFcRn), …. As to the kind of experiment: bridging ELISA at pH 5.5: hFcRn/ALP-nanobody reporter complex at one concentration on captured CD32a^R without IgG.
Assay [8] has as its target T2, His-tagged soluble mouse FcRn (mFcRn), …. Description: SPR at pH 5.5: mFcRn injected alone over CD32a^R captured on neutravidin (variant as titled on the sheet); the concentration is not printed on the sheet.
Description: as §1, §2

The source of these data is US20260274961A1 (BRIGHAM AND WOMEN S HOSPITAL, published 2026).

Where a chain is given by its changes, count along the chain named.

T1 sequence (P55899 24-290 limits assumed, chain 1 of 2): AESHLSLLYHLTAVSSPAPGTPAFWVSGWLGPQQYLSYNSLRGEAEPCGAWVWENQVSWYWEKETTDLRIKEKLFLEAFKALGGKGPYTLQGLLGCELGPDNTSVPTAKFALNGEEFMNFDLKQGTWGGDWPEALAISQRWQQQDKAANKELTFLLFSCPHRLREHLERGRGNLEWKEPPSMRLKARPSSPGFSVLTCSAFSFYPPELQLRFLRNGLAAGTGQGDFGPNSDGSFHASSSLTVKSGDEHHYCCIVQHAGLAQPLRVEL
T1 sequence (P61769 21-119 limits assumed, chain 2 of 2): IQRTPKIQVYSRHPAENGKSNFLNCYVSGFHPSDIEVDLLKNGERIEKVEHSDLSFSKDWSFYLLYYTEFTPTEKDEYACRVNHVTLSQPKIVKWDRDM

In the case of “anti-NIP chimeric IgG with wild type human IgG1 Fc (hIgG1^WT) (antibody)”, the Kd in assay [1] was 1300 nM; in assay [2] it was 2000 nM.
With “anti-NIP hIgG1-I253A/H310A/H435A (hIgG1^IHH) (from UniProt P01857 1-330) (antibody)”, the Kd in assay [1] amounted to 4800 nM.
Take “anti-NIP hIgG1-M252Y/S254T/T256E/H433K/N434F (hIgG1^MST/HN) (from UniProt P01857 1-330) (antibody)”: the Kd in assay [3] was found to be 7.4 nM; in assay [1] it was 2800 nM. For the same molecule, the decrease of binding against hIgG1^WT in assay [4] was 50%.

B1: site-specific biotinylated monomeric human CD32a^H (FcγRIIa, histidine-131 variant), recombinant (receptor, UniProt P12318 34-218, looked up)
chain: QAAAPPKAVLKLEPPWINVLQEDSVTLTCQGARSPESDSIQWFHNGNLIPTHTQPSYRFKANNNDSGEYTCQTGQTSLSDPVHLTVLSEWLVLQTPHLEFQEGETIMLRCHSWKDKPLVKVTFFQNGKSQKFSHLDPTFSIPQANHSHSGDYHCTGNIGYTLFSSKPVTITVQVPSMGSSSPMGI
modifications: C-terminus biotinylated
notes: Bought recombinant protein; also called CD32a-H131; C-terminus biotinylated CD32a^H
As for B1, the binding result in assay [5] and in assay [6] was “no binding” in each case.

B2: site-specific biotinylated monomeric human CD32a^R (FcγRIIa, arginine-131 variant), recombinant (receptor, UniProt P12318 34-218, looked up)
chain: B1 chain with H134R
modifications: C-terminus biotinylated
notes: Bought recombinant protein; The substitution is written against the histidine-131 form; also called CD32a-R131; C-terminus biotinylated CD32a^R
Regarding B2, the binding result in assay [7] and in assay [8] was “no binding” throughout.
